Reference: patent US20150183867A1 (AbbVie / Abbott, published 2015)
Blank lines part the entries; values can stand above or below the binder they belong to.

Key:
[1] = target: T1, Aβ1-42 (UniProt P05067 672-713); assay: Aβ 1-42 ELISA, peptide on plate; N-terminal VD
T1 construct: domain: Aβ1-42; Aβ 1-42 is a part of it; also called A beta
Protocol: (§1) ELISA assays were performed to screen for antibodies that bind a desired target antigen as follows. Maxisorb NUNC Immuno plates were coated with 100 μL/well of 1 μg/ml of Aβ1-42 diluted in coating buffer overnight at 6° C. Plates were washed three times with PBS containing 0.02% Tween 20. Blocking solution was prepared by dissolving the blocking reagent for ELISA (Roche) in 100 mL water and then diluted further 1:10 prior to use. Plates were blocked by the addition of 265 μL/well blocking solution for 2 hours at room temperature. Plates were washed three times after blocking with PBS containing 0.02% Tween 20.
(§2) Antibody or DVD-Igs were diluted to 100 ng/μL in PBST+0.5% BSA and serially diluted 1:3. One hundred microliters of antibody or DVD-Ig preparations was added to the plate and incubated for 2 hour at room temperature. Wells were washed three times with PBS containing 0.02% Tween 20.
(§3) One hundred microliters of TMB solution was added to each well and incubated for 10 minutes. TMB solution was prepared by mixing 20 mL 100 mM natrium-acetate pH4.9 with 200 μL TMB solution (Roche #92817060) and 29.5 μL 3% H₂O₂. The reaction was stopped by the addition of 50 μL 1N sulphuric acid. Plates were read spectrophotometrically at a wavelength of 450 nm.

[2] = target: T2, IGF-II (UniProt P01344 25-91); assay: direct bind ELISA, antigen on plate; C-terminal VD
T2 construct: Bought reagent; also called IGF2; IGF-2
Protocol: (§4) Enzyme Linked Immunosorbent Assays to screen for antibodies that bind a desired target antigen were performed as follows. High bind ELISA plates (Corning Costar #3369, Acton, Mass.) were coated with 100 μL/well of 10 μg/ml of desired target antigen (R&D Systems, Minneapolis, Minn.) or desired target antigen extra-cellular domain/FC fusion protein (R&D Systems, Minneapolis, Minn.) or monoclonal mouse anti-polyHistidine antibody (R&D Systems # MAB050, Minneapolis, Minn.) in phosphate buffered saline (10×PBS, Abbott Bioresearch Center, Media Prep# MPS-073, Worcester, Mass.) overnight at 4° C. Plates were washed four times with PBS containing 0.02% Tween 20. Plates were blocked by the addition of 300 μL/well blocking solution (non-fat dry milk powder, various retail suppliers, diluted to 2% in PBS) for 1/2 hour at room temperature. Plates were washed four times after blocking with PBS containing 0.02% Tween 20.
(§5) One hundred microliters of antibody or DVD-Ig preparations diluted in blocking solution as described above was added to the desired target antigen plate or desired target antigen/FC fusion plate or the anti-polyHistidine antibody/His tagged desired target antigen plate prepared as described above and incubated for 1 hour at room temperature. Wells were washed four times with PBS containing 0.02% Tween 20.
(§6) One hundred microliters of 10 ng/mL goat anti-human IgG-FC specific HRP conjugated antibody (Southern Biotech #2040-05, Birmingham, Ala.) was added to each well of the desired target antigen plate or anti-polyHistidine antibody/Histidine tagged desired target antigen plate. Alternatively, one hundred microliters of 10 ng/mL goat anti-human IgG-kappa light chain specific HRP conjugated antibody (Southern Biotech #2060-05 Birmingham, Ala.) was added to each well of the desired target antigen/FC fusion plate and incubated for 1 hour at room temperature. Plates were washed 4 times with PBS containing 0.02% Tween 20.

[3] = target: T3, IGF-I (UniProt P05019 49-118); assay: direct bind ELISA, antigen on plate; C-terminal VD
T3 construct: Bought reagent; also called IGF1; IGF-1
Protocol: as §4, §5, §6

[4] = target: T4, Aβ 20-42 globulomer (UniProt P05067 691-713); assay: Aβ 20-42 globulomer ELISA, antigen on plate; parent antibody
T4 construct: domain: Aβ 20-42 globulomer
T4 peptide (looked up): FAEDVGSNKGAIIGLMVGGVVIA
Protocol: (§7) ELISA assays were performed to screen for antibodies that bind a desired target antigen as follows. Aβ 20-42 globulomer and PBS at 37° C. was pre-warmed for 1 minute. High bind ELISA plates (Corning Costar #3369, Acton, Mass.) were coated with 100 μL/well of 41 µg/ml of Aβ 20-42 globulomer diluted in PBS overnight at 4° C. Plates were blocked with 320 μL/well of 100% superblock PBS buffer (Thermo Scientific, #37515) and incubated for 45 minutes at room temperature. Plates were washed three times after blocking with PBS containing 0.02% Tween 20.
(§8) Antibody or DVD-Igs were diluted to 2000 ng/mL, 1000 ng/mL, 200 ng/mL, 40 ng/mL, 8 ng/mL, 1.6 ng/mL and 0.32 ng/mL in 10% superblock in PBS. One hundred microliters of antibody or DVD-Ig preparations was added to the plate in triplicate and incubated for 2 hours at room temperature. Wells were washed five times with PBS containing 0.02% Tween 20.
(§9) One hundred microliters of TMB solution (Invitrogen-Zymed; #00-2023) was added to each well and incubated for 5 minutes. The reaction was stopped by the addition of 100 μL 2N sulphuric acid. Plates were read spectrophotometrically at a wavelength of 450 nm.

[5] = target: T3, IGF-I; assay: direct bind ELISA, antigen on plate; parent antibody; first of the two numbers, IGF1
Protocol: as §4
as §5, with “20. […]” for “20.”

[6] = target: T2, IGF-II; assay: direct bind ELISA, antigen on plate; parent antibody; second of the two numbers, IGF2
Protocol: as §4
as §5, with “20. […]” for “20.”

[7] = target: T5, Recombinant Human IL-1β (human, UniProt P01584 117-269); assay: direct bind ELISA, antigen on plate; C-terminal VD
T5 construct: Bought reagent; also called IL-1B
Protocol: as §4, §5, §6

[8] = target: T5, Recombinant Human IL-1β; assay: cell-based or functional assay
[9] = target: T5, Recombinant Human IL-1β; assay: direct bind ELISA, antigen on plate; N-terminal VD
Protocol: as §4, §5, §6

[10] = target: T1, Aβ1-42; assay: Aβ 1-42 ELISA, peptide on plate; C-terminal VD
Protocol: as §1, §2, §3

[11] = target: T4, Aβ 20-42 globulomer; assay: Aβ 20-42 globulomer ELISA, antigen on plate; N-terminal VD
Protocol: as §7, §8, §9

[12] = target: T4, Aβ 20-42 globulomer; assay: Aβ 20-42 globulomer ELISA, antigen on plate; C-terminal VD
Protocol: as §7, §8, §9

[13] = target: T1, Aβ1-42; assay: Aβ 1-42 ELISA, peptide on plate; parent antibody
Protocol: as §1, §2, §3

EC50 [1]: 0.016 nM | EC50 [2]: 131 nM | EC50 [3]: 210 nM
B1: DVD229 (bispecific antibody, human IgG1, lambda)
heavy: not shown
light: DVVMTQSPLSLPVTPGEPASISCKSSQSLLDSDGKTYLNWLLQKPGQSPQRLIYLVSKLDSGVPDRFSGSGSGTDFTLKISRVEAEDVGVYYCWQGTHFPRTFGQGTKVEIKRTVAAPQSVLTQPPSVSAAPGQKVTISCSGSSSNIENNHVSWYQQLPGTAPKLLIYDNNKRPSGIPDRFSGSKSGTSATLGITGLQTGDEADYYCETWDTSLSAGRVFGGGTKLTVLGQPKAAPSVTLFPPSSEELQANKATLVCLISDFYPGAVTVAWKADSSPVKAGVETTTPSKQSNNKYAASSYLSLTPEQWKSHRSYSCQVTHEGSTVEKTVAPTECS
notes: DVD-Ig; also called VD229H/VD229L

EC50 [4]: 0.319 nM
B2: AB044 (antibody, human IgG1, lambda, V domains shown)
VH: EVKLVESGGGLVKPGGSLRLSCAASGFTFSSYAMSWVRQAPGKGLEWVASIHNRGTIFYLDSVKGRFTISRDNVRNTLYLQMNSLRAEDTAVYYCTRGRSNSYAMDYWGQGTSVTVSS
VL: DVLVTQSPLSLPVTPGEPASISCRSTQTLVHRNGDTYLEWYLQKPGQSPQSLIYKVSNRFSGVPDRFSGSGSGTDFTLKISRVEAEDVGVYYCFQGSHVPYTFGQGTKLEIKR
notes: the light constant region is therefore doubtful

EC50 [5]: 10.1 nM | EC50 [6]: 2.93 nM
B3: AB010 (antibody, human IgG1, lambda, V domains shown)
VH: QVQLVQSGAEVKKPGASVKVSCKASGYTFTSYDINWVRQATGQGLEWMGWMNPNSGNTGYAQKFQGRVTMTRNTSISTAYMELSSLRSEDTAVYYCARDPYYYYYGMDVWGQGTTVTVSS
VL: QSVLTQPPSVSAAPGQKVTISCSGSSSNIENNHVSWYQQLPGTAPKLLIYDNNKRPSGIPDRFSGSKSGTSATLGITGLQTGDEADYYCETWDTSLSAGRVFGGGTKLTVLG
notes: also called IGF1,2 parent antibody

EC50 [1]: 0.016 nM | EC50 [7]: 3.94 µM | C-Terminal VD IL-1β Neutralization Assay EC50 [8]: 12.7 nM
B4: DVD225 (bispecific antibody, human IgG1, kappa)
heavy: not shown
light: DVVMTQSPLSLPVTPGEPASISCKSSQSLLDSDGKTYLNWLLQKPGQSPQRLIYLVSKLDSGVPDRFSGSGSGTDFTLKISRVEAEDVGVYYCWQGTHFPRTFGQGTKVEIKRTVAAPEIVLTQSPDFQSVTPKEKVTITCRASQSIGSSLHWYQQKPDQSPKLLIKYASQSFSGVPSRFSGSGSGTDFTLTINSLEAEDAAAYYCHQSSSLPFTFGPGTKVDIKRTVAAPSVFIFPPSDEQLKSGTASVVCLLNNFYPREAKVQWKVDNALQSGNSQESVTEQDSKDSTYSLSSTLTLSKADYEKHKVYACEVTHQGLSSPVTKSFNRGEC
notes: DVD-Ig; also called VD225H/VD225L

EC50 [9]: 9.52 nM | EC50 [10]: 0.045 nM | N-Terminal VD IL-1β Neutralization Assay EC50 [8]: 0.028 nM
B5: DVD226 (bispecific antibody, human IgG1, kappa)
heavy: not shown
light: EIVLTQSPDFQSVTPKEKVTITCRASQSIGSSLHWYQQKPDQSPKLLIKYASQSFSGVPSRFSGSGSGTDFTLTINSLEAEDAAAYYCHQSSSLPFTFGPGTKVDIKRTVAAPDVVMTQSPLSLPVTPGEPASISCKSSQSLLDSDGKTYLNWLLQKPGQSPQRLIYLVSKLDSGVPDRFSGSGSGTDFTLKISRVEAEDVGVYYCWQGTHFPRTFGQGTKVEIKRTVAAPSVFIFPPSDEQLKSGTASVVCLLNNFYPREAKVQWKVDNALQSGNSQESVTEQDSKDSTYSLSSTLTLSKADYEKHKVYACEVTHQGLSSPVTKSFNRGEC
notes: DVD-Ig; also called VD226H/VD226L

EC50 [11]: 0.397 nM | EC50 [10]: 0.024 nM
B6: DVD201 (bispecific antibody, human IgG1, kappa)
heavy: not shown
light: DVLVTQSPLSLPVTPGEPASISCRSTQTLVHRNGDTYLEWYLQKPGQSPQSLIYKVSNRFSGVPDRFSGSGSGTDFTLKISRVEAEDVGVYYCFQGSHVPYTFGQGTKLEIKRTVAAPDVVMTQSPLSLPVTPGEPASISCKSSQSLLDSDGKTYLNWLLQKPGQSPQRLIYLVSKLDSGVPDRFSGSGSGTDFTLKISRVEAEDVGVYYCWQGTHFPRTFGQGTKVEIKRTVAAPSVFIFPPSDEQLKSGTASVVCLLNNFYPREAKVQWKVDNALQSGNSQESVTEQDSKDSTYSLSSTLTLSKADYEKHKVYACEVTHQGLSSPVTKSFNRGEC
notes: DVD-Ig; also called VD201H/VD201L

EC50 [1]: 0.017 nM | EC50 [12]: 0.178 nM
B7: DVD202 (bispecific antibody, human IgG1, kappa)
heavy: not shown
light: DVVMTQSPLSLPVTPGEPASISCKSSQSLLDSDGKTYLNWLLQKPGQSPQRLIYLVSKLDSGVPDRFSGSGSGTDFTLKISRVEAEDVGVYYCWQGTHFPRTFGQGTKVEIKRTVAAPDVLVTQSPLSLPVTPGEPASISCRSTQTLVHRNGDTYLEWYLQKPGQSPQSLIYKVSNRFSGVPDRFSGSGSGTDFTLKISRVEAEDVGVYYCFQGSHVPYTFGQGTKLEIKRTVAAPSVFIFPPSDEQLKSGTASVVCLLNNFYPREAKVQWKVDNALQSGNSQESVTEQDSKDSTYSLSSTLTLSKADYEKHKVYACEVTHQGLSSPVTKSFNRGEC
notes: DVD-Ig; also called VD202H/VD202L

EC50 [13]: 0.012 nM
B8: AB043 (antibody, human IgG1, kappa, V domains shown)
VH: EVQLLESGGGLVQPGGSLRLSCAASGFTFSNYGMSWVRQAPGKGLEWVASIRSGGGRTYYSDNVKGRFTISRDNSKNTLYLQMNSLRAEDTAVYYCVRYDHYSGSSDYWGQGTLVTVSS
VL: DVVMTQSPLSLPVTPGEPASISCKSSQSLLDSDGKTYLNWLLQKPGQSPQRLIYLVSKLDSGVPDRFSGSGSGTDFTLKISRVEAEDVGVYYCWQGTHFPRTFGQGTKVEIKR
